Results reported in the supplement of paper PMC10567573.

B1: FBXO3 (parent)
chain: AGGFQQRQGLKYCLPLTFCIHTGL

Variants of: B1
Experiment: protein stability index of a GFP-peptide fusion (GPS, HEK-293T) (PSI 1-6); higher = more stable
Details: c terminus: a fixed tail appended
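Also: lentivirally expressed fusions sorted by FACS into six bins by GFP to DsRed ratio, PSI derived from sequencing read proportions per bin multiplied by bin number.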

First: AGGFQQRQGLKYCLPLMFCIHTGL [T17M]
Second: AGGFQQRQGLKYCLPLEFCIHTGL [T17E]
The protein stability index of the first is lower: 3.43 for the first, 4.01 for the second.

First: AGGFQQRQGLKYCLPLIFCIHTGL [T17I]
Second: AGGFQQRQGLKYCLPLYFCIHTGL [T17Y]
The protein stability index of the first is lower: 2.65 for the first, 2.69 for the second.

First: AGGFQQRQGLKYCLPLRFCIHTGL [T17R]
Second: AGGFQQRQGLKYCLPLKFCIHTGL [T17K]
The protein stability index of the first is higher: 2.87 for the first, 2.75 for the second.

Compared with AGGFQQRQGLKYCLPLGFCIHTGL [T17G], AGGFQQRQGLKYCLPLFFCIHTGL [T17F] is lower in protein stability index: 2.31 for the first, 1.67 for the second.

Compared with AGGFQQRQGLKYCLPLVFCIHTGL [T17V], AGGFQQRQGLKYCLPLQFCIHTGL [T17Q] is lower in protein stability index: 3.17 for the first, 2.4 for the second.

First: AGGFQQRQGLKYCLPLHFCIHTGL [T17H]
Second: AGGFQQRQGLKYCLPLCFCIHTGL [T17C]
The protein stability index of the first is higher: 3.39 for the first, 2.73 for the second.

Going from AGGFQQRQGLKYCLPLDFCIHTGL [T17D] to AGGFQQRQGLKYCLPLLFCIHTGL [T17L], the protein stability index rises from 1.55 to 2.11.

Going from AGGFQQRQGLKYCLPLNFCIHTGL [T17N] to AGGFQQRQGLKYCLPLWFCIHTGL [T17W], the protein stability index rises from 1.66 to 3.79.

Going from AGGFQQRQGLKYCLPLPFCIHTGL [T17P] to AGGFQQRQGLKYCLPPTFCIHTGL [L16P], the protein stability index rises from 2.59 to 2.75.

Going from AGGFQQRQGLKYCLPETFCIHTGL [L16E] to AGGFQQRQGLKYCLPKTFCIHTGL [L16K], the protein stability index rises from 2.03 to 2.95.

First: AGGFQQRQGLKYCLPYTFCIHTGL [L16Y]
Second: AGGFQQRQGLKYCLPWTFCIHTGL [L16W]
The protein stability index of the first is lower: 2.33 for the first, 2.89 for the second.

First: AGGFQQRQGLKYCLPHTFCIHTGL [L16H]
Second: AGGFQQRQGLKYCLPATFCIHTGL [L16A]
The protein stability index of the first is higher: 2.58 for the first, 2.44 for the second.

Compared with AGGFQQRQGLKYCLPNTFCIHTGL [L16N], AGGFQQRQGLKYCLPQTFCIHTGL [L16Q] is higher in protein stability index: 1.51 for the first, 1.52 for the second.

Going from AGGFQQRQGLKYCLPSTFCIHTGL [L16S] to AGGFQQRQGLKYCLPCTFCIHTGL [L16C], the protein stability index falls from 2.17 to 1.66.

First: AGGFQQRQGLKYCLPMTFCIHTGL [L16M]
Second: AGGFQQRQGLKYCLPTTFCIHTGL [L16T]
The protein stability index of the first is higher: 4.03 for the first, 2.53 for the second.

Going from AGGFQQRQGLKYCLPFTFCIHTGL [L16F] to AGGFQQRQGLKYCLPDTFCIHTGL [L16D], the protein stability index falls from 3.56 to 1.68.

Compared with AGGFQQRQGLKYCLPRTFCIHTGL [L16R], AGGFQQRQGLKYCLPITFCIHTGL [L16I] is higher in protein stability index: 2.91 for the first, 3.02 for the second.

Compared with AGGFQQRQGLDYCLPLTFCIHTGL [K11D], AGGFQQRQGLHYCLPLTFCIHTGL [K11H] is lower in protein stability index: 3.52 for the first, 2.35 for the second.

Compared with AGGFQQRQGLFYCLPLTFCIHTGL [K11F], AGGFQQRQGLNYCLPLTFCIHTGL [K11N] is lower in protein stability index: 3.02 for the first, 1.99 for the second.

Compared with AGGFQQRQGLGYCLPLTFCIHTGL [K11G], AGGFQQRQGLMYCLPLTFCIHTGL [K11M] is lower in protein stability index: 3.61 for the first, 1.96 for the second.

Compared with AGGFQQRQGLYYCLPLTFCIHTGL [K11Y], AGGFQQRQGLEYCLPLTFCIHTGL [K11E] is higher in protein stability index: 2.43 for the first, 2.8 for the second.

Compared with AGGFQQRQGLIYCLPLTFCIHTGL [K11I], AGGFQQRQGLLYCLPLTFCIHTGL [K11L] is lower in protein stability index: 3.42 for the first, 2.21 for the second.

Going from AGGFQQRQGLAYCLPLTFCIHTGL [K11A] to AGGFQQRQGLCYCLPLTFCIHTGL [K11C], the protein stability index falls from 2.43 to 2.12.

Compared with AGGFQQRQGLTYCLPLTFCIHTGL [K11T], AGGFQQRQGLSYCLPLTFCIHTGL [K11S] is higher in protein stability index: 2.45 for the first, 2.74 for the second.

Going from AGGFQQRQGLRYCLPLTFCIHTGL [K11R] to AGGFQQRQGLQYCLPLTFCIHTGL [K11Q], the protein stability index rises from 2.03 to 2.75.

Compared with AGGFQQRQGLWYCLPLTFCIHTGL [K11W], AGGFQQRQGLVYCLPLTFCIHTGL [K11V] is lower in protein stability index: 4.04 for the first, 3.35 for the second.

First: AGGFQQRQGLKYCPPLTFCIHTGL [L14P]
Second: AGGFQQRQGLKYCMPLTFCIHTGL [L14M]
The protein stability index of the first is lower: 1.56 for the first, 2.42 for the second.

Going from AGGFQQRQGLKYCYPLTFCIHTGL [L14Y] to AGGFQQRQGLKYCIPLTFCIHTGL [L14I], the protein stability index rises from 2.16 to 4.28.

First: AGGFQQRQGLKYCVPLTFCIHTGL [L14V]
Second: AGGFQQRQGLKYCEPLTFCIHTGL [L14E]
The protein stability index of the first is higher: 4.27 for the first, 1.97 for the second.

First: AGGFQQRQGLKYCRPLTFCIHTGL [L14R]
Second: AGGFQQRQGLKYCGPLTFCIHTGL [L14G]
The protein stability index of the first is lower: 2.88 for the first, 3.59 for the second.

Going from AGGFQQRQGLKYCTPLTFCIHTGL [L14T] to AGGFQQRQGLKYCCPLTFCIHTGL [L14C], the protein stability index rises from 1.84 to 3.66.

First: AGGFQQRQGLKYCKPLTFCIHTGL [L14K]
Second: AGGFQQRQGLKYCDPLTFCIHTGL [L14D]
The protein stability index of the first is higher: 2.73 for the first, 1.78 for the second.

Going from AGGFQQRQGLKYCQPLTFCIHTGL [L14Q] to AGGFQQRQGLKYCSPLTFCIHTGL [L14S], the protein stability index rises from 2.57 to 2.67.

First: AGGFQQRQGLKYCNPLTFCIHTGL [L14N]
Second: AGGFQQRQGLKYCAPLTFCIHTGL [L14A]
The protein stability index of the first is lower: 2.34 for the first, 2.7 for the second.

First: AGGFQQRQGLKYCHPLTFCIHTGL [L14H]
Second: AGGFQQRQGLKYNLPLTFCIHTGL [C13N]
The protein stability index of the first is lower: 1.75 for the first, 2.93 for the second.

Going from AGGFQQRQGLKYQLPLTFCIHTGL [C13Q] to AGGFQQRQGLKYYLPLTFCIHTGL [C13Y], the protein stability index falls from 3 to 2.22.

First: AGGFQQRQGLKYLLPLTFCIHTGL [C13L]
Second: AGGFQQRQGLKYFLPLTFCIHTGL [C13F]
The protein stability index of the first is lower: 1.69 for the first, 2.94 for the second.

First: AGGFQQRQGLKYGLPLTFCIHTGL [C13G]
Second: AGGFQQRQGLKYILPLTFCIHTGL [C13I]
The protein stability index of the first is lower: 2.48 for the first, 2.94 for the second.

First: AGGFQQRQGLKYHLPLTFCIHTGL [C13H]
Second: AGGFQQRQGLKYWLPLTFCIHTGL [C13W]
The protein stability index of the first is lower: 2.57 for the first, 3.43 for the second.

Compared with AGGFQQRQGLKYVLPLTFCIHTGL [C13V], AGGFQQRQGLKYALPLTFCIHTGL [C13A] is lower in protein stability index: 3.35 for the first, 2.85 for the second.

Compared with AGGFQQRQGLKYPLPLTFCIHTGL [C13P], AGGFQQRQGLKYELPLTFCIHTGL [C13E] is higher in protein stability index: 3.01 for the first, 3.1 for the second.

Going from AGGFQQRQGLKYDLPLTFCIHTGL [C13D] to AGGFQQRQGLKYMLPLTFCIHTGL [C13M], the protein stability index falls from 2.67 to 2.51.

First: AGGFQQRQGLKYTLPLTFCIHTGL [C13T]
Second: AGGFQQRQGLKYCLPLTFIIHTGL [C19I]
The protein stability index of the first is higher: 3.22 for the first, 1.6 for the second.

First: AGGFQQRQGLKYCLPLTFDIHTGL [C19D]
Second: AGGFQQRQGLKYCLPLTFQIHTGL [C19Q]
The protein stability index of the first is lower: 1.46 for the first, 1.74 for the second.

Going from AGGFQQRQGLKYCLPLTFYIHTGL [C19Y] to AGGFQQRQGLKYCLPLTFAIHTGL [C19A], the protein stability index rises from 2.67 to 3.9.

Going from AGGFQQRQGLKYCLPLTFEIHTGL [C19E] to AGGFQQRQGLKYCLPLTFKIHTGL [C19K], the protein stability index falls from 3.11 to 2.21.

First: AGGFQQRQGLKYCLPLTFHIHTGL [C19H]
Second: AGGFQQRQGLKYCLPLTFRIHTGL [C19R]
The protein stability index of the first is lower: 2.66 for the first, 2.8 for the second.
